Measurements published in patent publication US20210403506A1 (XDCEXPLORER SHANGHAI, published 2021).
Square brackets hold non-standard residues; d marks the D form. Primed or numbered codes have the meaning given here. Ends that are not written are not given here. * marks the point of attachment. azaTic = 3,4-dihydropyridazine-2(H)-formic acid; Pro(5R-Ph) = O=C(O)[C@@H]1CC[C@H](c2ccccc2)N1; Pro(4Ph)″ = 4-phenylproline (Pro(4-phenyl)); Bip = N[C@@H](Cc1ccc(-c2ccccc2)cc1)C(=O)O; PEG8 = NCCOCCOCCOCCOCCOCCOCCOCCOCCC(=O)O; Gly(Nα-CH2CH2CONH2) = NC(=O)CCNCC(=O)O; 1Nal = N[C@@H](Cc1cccc2ccccc12)C(=O)O; 2Nal = N[C@@H](Cc1ccc2ccccc2c1)C(=O)O; dNMeY = CN[C@H](Cc1ccc(O)cc1)C(=O)O; Hydrocinnamoyl = O=C(CCc1ccccc1)*; Palmitoyl = CCCCCCCCCCCCCCCC(=O)*; NMeQ = CN[C@@H](CCC(N)=O)C(=O)O; Tic = O=C(O)[C@@H]1Cc2ccccc2CN1; NMeL = CN[C@@H](CC(C)C)C(=O)O; NMeV = CN[C@H](C(=O)O)C(C)C; NMeS = CN[C@@H](CO)C(=O)O; dNMeS = CN[C@H](CO)C(=O)O; Thz = O=C(O)[C@@H]1CSCN1; dNMeA = CN[C@H](C)C(=O)O; dTi1c = not defined here; Nleu = CC(C)CNCC(=O)O; βAla = NCCC(=O)O

T1: human Chemokine like receptor 1 (human, UniProt Q99788 1-373)
T1 sequence (looked up): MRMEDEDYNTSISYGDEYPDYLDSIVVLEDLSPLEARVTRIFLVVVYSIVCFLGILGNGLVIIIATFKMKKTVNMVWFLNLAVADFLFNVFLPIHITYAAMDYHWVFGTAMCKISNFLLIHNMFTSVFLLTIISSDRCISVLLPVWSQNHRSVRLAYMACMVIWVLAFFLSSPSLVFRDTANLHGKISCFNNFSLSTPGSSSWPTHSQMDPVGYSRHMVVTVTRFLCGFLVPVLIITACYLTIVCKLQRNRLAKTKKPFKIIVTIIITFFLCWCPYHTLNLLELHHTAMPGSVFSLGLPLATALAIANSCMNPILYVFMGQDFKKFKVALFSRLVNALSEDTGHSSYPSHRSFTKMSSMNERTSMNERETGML


Molecular target: T1, human Chemokine like receptor 1
Test: cell-based or functional assay

EC50 (µM), activation of Tango CMKLR1-bla U2OS cells [µM]	Binder
0.003	Hydrocinnamoyl-[dY]F[NMeL]P[dS]QF[dA][Tic]S-NH2 (SMILES CC(C)C[C@@H](C(=O)N1CCC[C@H]1C(=O)N[C@H](CO)C(=O)N[C@@H](CCC(N)=O)C(=O)N[C@@H](Cc1ccccc1)C(=O)N[C@H](C)C(=O)N1Cc2ccccc2C[C@H]1C(=O)N[C@@H](CO)C(N)=O)N(C)C(=O)[C@H](Cc1ccccc1)NC(=O)[C@@H](Cc1ccc(O)cc1)NC(=O)CCc1ccccc1) [YW-161]
11	[dY]FLP[dS]QF[dNMeA][Tic]S-OH [YW-109]
0.0029	{3,5‑dihydroxyphenylacetyl}-[dY]FLP[dS]QF[dA][Tic]S [YW-131]
> 50	[dY]FLP[dS][Gly(Nα-CH2CH2CONH2)]F[dA][Tic]S-OH [YW-108]
0.0014	[dNMeY]F[NMeL]P[dS]Q[2Nal][dA][Tic][NMeS]-OH (N-terminus assumed; SMILES CN[C@H](Cc1ccc(O)cc1)C(=O)N[C@@H](Cc1ccccc1)C(=O)N(C)[C@@H](CC(C)C)C(=O)N1CCC[C@H]1C(=O)N[C@H](CO)C(=O)N[C@@H](CCC(N)=O)C(=O)N[C@@H](Cc1ccc2ccccc2c1)C(=O)N[C@H](C)C(=O)N1Cc2ccccc2C[C@H]1C(=O)N(C)[C@@H](CO)C(=O)O) [YW-146]
0.0006	[dNMeY]F[NMeL][Thz][dS]Q[2Nal][dA][Tic][NMeS]-OH (N-terminus assumed; SMILES CN[C@H](Cc1ccc(O)cc1)C(=O)N[C@@H](Cc1ccccc1)C(=O)N(C)[C@@H](CC(C)C)C(=O)N1CSC[C@H]1C(=O)N[C@H](CO)C(=O)N[C@@H](CCC(N)=O)C(=O)N[C@@H](Cc1ccc2ccccc2c1)C(=O)N[C@H](C)C(=O)N1Cc2ccccc2C[C@H]1C(=O)N(C)[C@@H](CO)C(=O)O) [YW-125]
0.0055	[dY]FLP[dS]QF[dA][Tic]S-OH (not fully specified (N-terminus); printed as 3,5-dihydroxyphenylacetyl-(D-Tyr)-Phe-Leu-Pro-(D-Ser)-Gln-Phe-(D-Ala)-Tic-Ser-OH) [YW-132]
0.0007	{Palmitoyl-PEG8}-[βAla][βAla][dY]F[NMeL]P[dS]QF[dA][Tic]S-OH (SMILES CCCCCCCCCCCCCCCC(=O)NCCOCCOCCOCCOCCOCCOCCOCCOCCC(=O)NCCC(=O)NCCC(=O)N[C@H](Cc1ccc(O)cc1)C(=O)N[C@@H](Cc1ccccc1)C(=O)N(C)[C@@H](CC(C)C)C(=O)N1CCC[C@H]1C(=O)N[C@H](CO)C(=O)N[C@@H](CCC(N)=O)C(=O)N[C@@H](Cc1ccccc1)C(=O)N[C@H](C)C(=O)N1Cc2ccccc2C[C@H]1C(=O)N[C@@H](CO)C(=O)O) [YW-134]
12	[dY]F[NMeV]P[dS]QF[dA][Tic]S-OH [YW-99]
30	[dY]FLP[dS]QF[dA][Bip]S-OH [YW-95]
0.0026	[dNMeY]F[NMeL]P[dS]Q[1Nal][dA][Tic][NMeS]-OH (N-terminus assumed; SMILES CN[C@H](Cc1ccc(O)cc1)C(=O)N[C@@H](Cc1ccccc1)C(=O)N(C)[C@@H](CC(C)C)C(=O)N1CCC[C@H]1C(=O)N[C@H](CO)C(=O)N[C@@H](CCC(N)=O)C(=O)N[C@@H](Cc1cccc2ccccc12)C(=O)N[C@H](C)C(=O)N1Cc2ccccc2C[C@H]1C(=O)N(C)[C@@H](CO)C(=O)O) [YW-162]
> 50	[dY]FLP[dS]QF[dA][S‑Pip]S-OH [YW-90]

Continued, binder first:

Binder	EC50 (µM), activation of Tango CMKLR1-bla U2OS cells [µM]
[dY]FLP[dS]QF[dA][Ala(dip)]S-OH [YW-94]	8.7
[dY]F[Nleu]P[dS]QF[dA][Tic]S-OH [YW-102]	0.31
[dNMeY]F[NMeL][Thz][dS]Q[2Nal][dA][Tic]S-OH (N-terminus assumed; SMILES CN[C@H](Cc1ccc(O)cc1)C(=O)N[C@@H](Cc1ccccc1)C(=O)N(C)[C@@H](CC(C)C)C(=O)N1CSC[C@H]1C(=O)N[C@H](CO)C(=O)N[C@@H](CCC(N)=O)C(=O)N[C@@H](Cc1ccc2ccccc2c1)C(=O)N[C@H](C)C(=O)N1Cc2ccccc2C[C@H]1C(=O)N[C@@H](CO)C(=O)O) [YW-148]	0.0005
[dY]F[NMeL]P[dS]QF[dA][Tic]S-OH (N-terminus assumed; SMILES CC(C)C[C@@H](C(=O)N1CCC[C@H]1C(=O)N[C@H](CO)C(=O)N[C@@H](CCC(N)=O)C(=O)N[C@@H](Cc1ccccc1)C(=O)N[C@H](C)C(=O)N1Cc2ccccc2C[C@H]1C(=O)N[C@@H](CO)C(=O)O)N(C)C(=O)[C@H](Cc1ccccc1)NC(=O)[C@H](N)Cc1ccc(O)cc1) [YW-98]	0.003
{Palmitoyl-PEG8}-GG[dY]F[NMeL]P[dS]QF[dA][Tic]S-OH (SMILES CCCCCCCCCCCCCCCC(=O)NCCOCCOCCOCCOCCOCCOCCOCCOCCC(=O)NCC(=O)NCC(=O)N[C@H](Cc1ccc(O)cc1)C(=O)N[C@@H](Cc1ccccc1)C(=O)N(C)[C@@H](CC(C)C)C(=O)N1CCC[C@H]1C(=O)N[C@H](CO)C(=O)N[C@@H](CCC(N)=O)C(=O)N[C@@H](Cc1ccccc1)C(=O)N[C@H](C)C(=O)N1Cc2ccccc2C[C@H]1C(=O)N[C@@H](CO)C(=O)O) [YW-133]	0.0007
[dY]FLP[dS]QF[dA][Tic]T-OH (N-terminus assumed; SMILES CC(C)C[C@H](NC(=O)[C@H](Cc1ccccc1)NC(=O)[C@H](N)Cc1ccc(O)cc1)C(=O)N1CCC[C@H]1C(=O)N[C@H](CO)C(=O)N[C@@H](CCC(N)=O)C(=O)N[C@@H](Cc1ccccc1)C(=O)N[C@H](C)C(=O)N1Cc2ccccc2C[C@H]1C(=O)N[C@H](C(=O)O)[C@@H](C)O) [YW-160]	0.285
[dY]FLP[dS]Q[dS][dA][azaTic]S-OH [YW-147]	> 50
[dNMeY]F[NMeL][Thz][dS]Q[1Nal][dA][Tic][NMeS]-OH (N-terminus assumed; SMILES CN[C@H](Cc1ccc(O)cc1)C(=O)N[C@@H](Cc1ccccc1)C(=O)N(C)[C@@H](CC(C)C)C(=O)N1CSC[C@H]1C(=O)N[C@H](CO)C(=O)N[C@@H](CCC(N)=O)C(=O)N[C@@H](Cc1cccc2ccccc12)C(=O)N[C@H](C)C(=O)N1Cc2ccccc2C[C@H]1C(=O)N(C)[C@@H](CO)C(=O)O) [YW-142]	0.0009
[dY]FLP[dNMeS]QF[dA][Tic]S-OH [YW-106]	24
[dY]FLP[dS][NMeQ]F[dA][Tic]S-OH [YW-107]	> 50
[dY]FLP[dS]QF[dA][Pro(5R-Ph)]S-OH (N-terminus assumed; SMILES CC(C)C[C@H](NC(=O)[C@H](Cc1ccccc1)NC(=O)[C@H](N)Cc1ccc(O)cc1)C(=O)N1CCC[C@H]1C(=O)N[C@H](CO)C(=O)N[C@@H](CCC(N)=O)C(=O)N[C@@H](Cc1ccccc1)C(=O)N[C@H](C)C(=O)N1[C@@H](c2ccccc2)CC[C@H]1C(=O)N[C@@H](CO)C(=O)O) [YW-91]	0.46
[dY]F[NMeL]P[dS]QF[dA][dTi1c]S-OH (reading uncertain; also: printed as (D-Tyr)-Phe-(NMe-Leu)-Pro-(D-Ser)-Gln-Phe-(D-Ala)-(D-Ti1c)-Ser) [YW-153]	0.0085
[dNMeY]F[NMeL]P[dS]QF[dA][Tic]S-OH (N-terminus assumed; SMILES CN[C@H](Cc1ccc(O)cc1)C(=O)N[C@@H](Cc1ccccc1)C(=O)N(C)[C@@H](CC(C)C)C(=O)N1CCC[C@H]1C(=O)N[C@H](CO)C(=O)N[C@@H](CCC(N)=O)C(=O)N[C@@H](Cc1ccccc1)C(=O)N[C@H](C)C(=O)N1Cc2ccccc2C[C@H]1C(=O)N[C@@H](CO)C(=O)O) [YW-163]	0.0022
[dY]FLP[dS]QF[dA][Pro(4Ph)″]S-OH [YW-92]	1
